Test results as given in PMC8017925, “Structural basis for differential recognition of phosphohistidine-containing peptides by 1-pHis and 3-pHis monoclonal antibodies” (Proceedings of the National Academy of Sciences of the …, 2021).

What was measured:
Format in all cases: binding
ACLY pHis peptide = assay: BLI of pHis Fabs with phosphorylated ACLY peptide; conditions: GpHAGAC motif
Protocol: Next, we turned to further analyze the peptide selectivity using BLI experiments. Nine amino acid peptide sequences from proteins known to undergo histidine phosphorylation were selected and synthesized (SI Appendix, Table S2). The biotinylated peptides ACLY, NM23, SCS, and Common-His were chemically phosphorylated using phosphoramidate (8 h at 23 °C), and affinity-purified using immobilized 1-pHis IgGs or 3-pHis IgGs, as described above. BLI signal intensity was used to assess peptide binding to the Fabs. […]
The binding kinetics of pHis Fabs with the peptides (pTza and pHis) were evaluated with an Octet RED96e (FortéBio). […] The biotinylated pTza peptides or pHis peptides (20 nM) with and without phosphoramidate treatment were coated onto these streptavidin biosensors and analyzed for their binding to varying concentrations of the pHis Fabs with an association time of 120 s and dissociation time of 200 s. […] The data were analyzed using the Octet software (FortéBio) and the rates of association and dissociation were obtained by global fitting data to the 1:1 Langmuir interaction model. […]
(§1) 1H NMR of ACLYana peptide. A mixture of 5 mM ACLYana peptide and 250 mM phosphoramidate in 20 mM d18-Hepes, pH 8.0, 50 mM NaCl in D2O was incubated at 23 °C and monitored over the course of 29 h. […]

NM23 pHis peptide = assay: BLI of pHis Fabs with phosphorylated NM23 peptide
Protocol: (§2) Next, we turned to further analyze the peptide selectivity using BLI experiments. Nine amino acid peptide sequences from proteins known to undergo histidine phosphorylation were selected and synthesized (SI Appendix, Table S2). The biotinylated peptides ACLY, NM23, SCS, and Common-His were chemically phosphorylated using phosphoramidate (8 h at 23 °C), and affinity-purified using immobilized 1-pHis IgGs or 3-pHis IgGs, as described above. BLI signal intensity was used to assess peptide binding to the Fabs. SC1-1, SC50-3, SC39-4, and SC56-2 had signal intensities in 0.5 to 1 nm for the association (SI Appendix, Fig. S10), whereas SC44-8 had maximum signal (2.0 nm) with ACLYana, which has GpHAGAG motif, and a signal of 0.5 nm for ACLY and SCS peptides, which have GpHAGAC and GpHAGAI motifs, respectively. However, there was no signal with NM23 and Common-His peptides, which lack this motif (SI Appendix, Fig. S10D). […] The binding kinetics of the pHis Fabs with this set of peptides indicate that the affinity values are similar for the pHis Fabs SC50-3, SC39-4, and SC56-2, consistent with them binding in a sequence-independent manner.
(§3) The binding kinetics of pHis Fabs with the peptides (pTza and pHis) were evaluated with an Octet RED96e (FortéBio). Streptavidin-coated biosensors (FortéBio) were presoaked in buffer containing 50 mM Hepes pH 8.0, 150 mM NaCl, 0.05% Tween-20, and 0.2% BSA for 15 min. The biotinylated pTza peptides or pHis peptides (20 nM) with and without phosphoramidate treatment were coated onto these streptavidin biosensors and analyzed for their binding to varying concentrations of the pHis Fabs with an association time of 120 s and dissociation time of 200 s. The entire set of experiments was repeated three times. The data were analyzed using the Octet software (FortéBio) and the rates of association and dissociation were obtained by global fitting data to the 1:1 Langmuir interaction model. […]
(§4) Peptides used in the DSF and BLI experiments were synthesized by the Salk Peptide Synthesis Core. These peptides were N-terminally biotinylated and C-terminally amidated. They were synthesized using standard Fmoc chemistry on a Gyros Protein Technologies Tribute peptide synthesizer with UV monitoring. […]
(§5) Phosphoramidation reaction. The small molecule phosphate donor phosphoramidate was used to phosphorylate the peptides containing His (Table S2). Phosphoramidate was synthesized based on Wei and Matthew’s method (2) and stored in a desiccator. 20 nanomoles of peptides were added to one micromole of the phosphoramidate in 50 mM Hepes pH 8.0 and 150 mM NaCl buffer. […]
as §1

Common-His pHis peptide = assay: BLI of pHis Fabs with phosphorylated Common-His peptide
Protocol: as §2, §3, §4, §5, §1

[1] = BLI, phosphorylated, affinity-purified NM23 peptide, Table S7
[2] = BLI, phosphorylated, affinity-purified Common-His peptide, Table S7

KD (NM23 pHis peptide; BLI, biotinylated NM23 peptide phosphorylated with phosphoramidate (8 h at 23 °C), affinity-purified on 1-pHis or 3-pHis IgGs (cognate isomer), Table S7): No binding
kd (NM23 pHis peptide; [1]): No binding
KD (Common-His pHis peptide; BLI, biotinylated Common-His peptide phosphorylated with phosphoramidate (8 h at 23 °C), affinity-purified on 1-pHis or 3-pHis IgGs (cognate isomer), Table S7): No binding
kd (Common-His pHis peptide; [2]): No binding
B1: SC44-8: Fab of rabbit 3-pHis-specific monoclonal antibody with proclivity for GpHAGA motif (antibody, V domains shown)
VH: QSVKESGRGLVQPGGSLTLTCTASGFSIDSYGFSWVRQAPGKGLEHIGYLTAGGRAFYASWAKSRSTITRNTNENTVTLKMTSLTAADTATYFCAKLGSGNPVAIWGPGTLVTVSS
VL: QVLTQTPSFTSAAVGGTVTINCQSSQSVWRNKNLAWYQQKPGQPPKRLIYAIATLDSGVPSRFSGSGSGTQFTLTISDVQCDDAATYYCVGHYGSENDAYYAFGGGTEVVVK
BLI signal with ACLY peptide (ACLY pHis peptide): 0.5 nm
ka (NM23 pHis peptide; [1]): No binding
BLI signal with NM23 peptide (NM23 pHis peptide; phosphorylated NM23, lacks GpHAGA motif): no signal
ka (Common-His pHis peptide; [2]): No binding
BLI signal with Common-His peptide (Common-His pHis peptide; phosphorylated Common-His, lacks GpHAGA motif): no signal
